Drawing on the supplement of paper PMC10567573, this text covers protein stability index for 72 sequences.

± gives the standard deviation.

This data set is described as follows: protein stability index of a GFP-peptide fusion (GPS, HEK-293T) (PSI 1-6); higher = more stable.
Where [1] appears, read: treatment: DMSO, c terminus: a fixed tail appended.
Where [2] appears, read: treatment: MLN4924 1 uM, 8 h, c terminus: a fixed tail appended.
The mark [3] stands for this setting: treatment: DMSO, c terminus: native.
Where [4] appears, read: treatment: MLN4924 1 uM, 8 h, c terminus: native.
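Also: 24-mer peptide tiles fused after GFP, lentivirally expressed, FACS-sorted into six equal bins by GFP/DsRed ratio, decoded by Illumina sequencing, PSI is the read-weighted mean bin number.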

Consider GLFRKSGVKSRIQALRQMNEGAID [DLC1], for which the protein stability index was 3.36 ± 0.1 under setting [1] and 3.71 ± 0.12 under setting [2].

GLPGSGKTTLARQLQHDFPRALIF [N4BP2L1]: the protein stability index is, setting by setting: under setting [1], 2.25 ± 0.18; under setting [2], 2.56 ± 0.23.

GLQAPPPDDVDYATNPHVKPPYSY [FOXJ1]: the protein stability index by setting is: under setting [1], 4.42 ± 0.29; under setting [2], 4.46 ± 0.19.

GLRAGFSSTSYRRTFGPPPSLSPG [PRPH]: the protein stability index was determined as 2.62 ± 0.24 under setting [1] and 2.93 ± 0.15 under setting [2].

As for GLSVSSRFSSGGACGLGGGYGGGF [KRT16], the protein stability index by setting is: under setting [1], 2.2 ± 0.39; under setting [2], 2.52 ± 0.38.

Take GPIGGMMPPQPGIPQQQGMRPPMP [ZNF207]: the protein stability index reads like this: under setting [1], 4.35 ± 0.3; under setting [2], 4.36 ± 0.27.

Consider GPSLPSKRESPGVGGGSGDEASAA [ZBTB22], for which the protein stability index was 5.5 ± 0.34 under setting [1] and 5.64 ± 0.48 under setting [2].

GQCLDSTDQLEFTVEPRLLVADLL [RTN2] registered a protein stability index under setting [1] of 2.91 ± 0.2 and a protein stability index under setting [2] of 3 ± 0.26.

Turning to GQDKQFAWHCSESGQRLGGYRTSA [WDFY2], the protein stability index reads like this: under setting [1], 3.51 ± 0.24; under setting [2], 3.24 ± 0.28.

With GQLTGGYKPNPQIYVKLIEECTDL [OAS1], the protein stability index turned out to be 2.99 ± 0.21 under setting [1] and 3.06 ± 0.093 under setting [2].

GRGAFGEVRLVQKKDTGHIYAMKI [STK38L]: the protein stability index under setting [1] worked out at 2.09 ± 0.25 and the protein stability index under setting [2] stood at 2.43 ± 0.49.

Turning to GRGLYVYSLQMKRVIACQKTAHDS [WDR41], the protein stability index by setting is: under setting [1], 2.08 ± 0.42; under setting [2], 2.15 ± 0.34.

As to GRSGWPAGGAPGSPIPSPPGPGDD [HES6], the protein stability index by setting is: under setting [1], 5.2 ± 0.21; under setting [2], 5.25 ± 0.093.

In the case of GSFTVRADHGEPIGRGTKVILHLK [HSP90AB1], the protein stability index is, setting by setting: under setting [1], 2.1 ± 0.3; under setting [2], 2.71 ± 0.3.

As for GSGSSYVQNGTGNAYEEEANKQS [CNOT7], the protein stability index reads like this: under setting [3], 5.37 ± 0.19; under setting [4], 5.2 ± 0.23.

Turning to GSRYDARRGVSDWDLRMKLHDRGA [DNAAF3], the protein stability index reads like this: under setting [1], 3.61 ± 0.23; under setting [2], 3.66 ± 0.42.

For the sequence GTQHMFEDDPSVLYVSLHRYDHGT [HDAC6], the protein stability index by setting is: under setting [1], 2.34 ± 0.37; under setting [2], 2.5 ± 0.45.

Turning to GVRVNNRFELINIDDLEDDPVVNG [TCF25], the protein stability index came out at 4.41 ± 0.16 under setting [1] and 4.51 ± 0.18 under setting [2].

Regarding GYGRAPGGLSLHDYKLLKPSLAVN [JUNB], the protein stability index reads like this: under setting [1], 2.92 ± 0.035; under setting [2], 2.88 ± 0.73.

Regarding GYVSQQGGQRSTPLIIAARNGHAK [FEM1B], the protein stability index under setting [1] turned out to be 3.74 ± 0.15 and the protein stability index under setting [2] is 3.8 ± 0.34.

HAAHVVCRELGYVEAKSWTASSSY [LOXL2]: the protein stability index reads like this: under setting [1], 2.31 ± 0.29; under setting [2], 2.28 ± 0.17.

Take HALSGHAKVKPFDPKITCKQECLI [TPH1]: the protein stability index is, setting by setting: under setting [1], 2.13 ± 0.27; under setting [2], 2.12 ± 0.19.

As to HDGEDVACPQGGVQYGAGVACSET [LOXL2], the protein stability index runs as follows: under setting [1], 4.99 ± 0.31; under setting [2], 5.42 ± 0.32.

In the case of HEALSRLWELCHLWLRPEVHTKEQ [ZNF396], the protein stability index is, setting by setting: under setting [1], 2.11 ± 0.45; under setting [2], 2.4 ± 0.14.

Turning to HGSPQLGEGMFQHQTSVAHQPVVR [TBX5], the protein stability index reads like this: under setting [1], 4.19 ± 0.28; under setting [2], 4.13 ± 0.17.

With HKKDCAREKPFKCQECGKTFRVSS [ZNF75A], the protein stability index by setting is: under setting [1], 3.45 ± 0.38; under setting [2], 3.65 ± 0.41.

As for HKPLLICSCEWMAAMFGGSFVESA [RHOBTB1], the protein stability index amounted to 2.72 ± 0.79 under setting [1] and 2.46 ± 0.85 under setting [2].

The sequence HLSSPAKNFFKKAAAALFGGKKDK [PLK2] had a protein stability index under setting [1] of 2.16 ± 0.49 and a protein stability index under setting [2] of 2.53 ± 0.55.

Regarding HLTRGRKMAHVIAACLYLVCRTEG [BRF1], the protein stability index is, setting by setting: under setting [1], 2.53 ± 0.99; under setting [2], 2.6 ± 0.48.

With HMVSDGSWVVRVQAAKLLGSMEQV [INTS4], the protein stability index is, setting by setting: under setting [1], 2.48 ± 0.74; under setting [2], 2.1 ± 0.21.

With HNCAHFCINIPGSYVCRCKQGYIL [MATN2], the protein stability index is, setting by setting: under setting [1], 2.48 ± 0.2; under setting [2], 2.71 ± 0.27.

As to HPVCSLCWSRDGHKLVSASTDNIV [RBBP5], the protein stability index under setting [1] was found to be 2.72 ± 0.28 and the protein stability index under setting [2] stood at 2.95 ± 0.44.

Take HQEQVEDLTASHDAALLEMENNHT [MTUS2]: the protein stability index runs as follows: under setting [1], 5.51 ± 0.2; under setting [2], 5.4 ± 0.3.

As to HQQNKIKDLQKEQKTLQVKCQHYK [CEP70], the protein stability index amounted to 4.11 ± 0.28 under setting [1] and 4.6 ± 0.21 under setting [2].

As for HQQVEEALSFTLLGSAPLDQEPLL [NEK8], the protein stability index came to 3.69 ± 0.25 under setting [1] and 3.75 ± 0.12 under setting [2].

The sequence HRGHCERRHRLGGVGAVPGPGTPT [ZBTB22] displayed a protein stability index under setting [1] of 4.2 ± 0.26 and a protein stability index under setting [2] of 4.36 ± 0.16.

The sequence HRGPSGHTEASAQRSHMGKLKEPQ registered a protein stability index under setting [1] of 5.1 ± 0.38 and a protein stability index under setting [2] of 4.87 ± 0.5.

In the case of HRPSLNSVSLQINCQSVAQMNLLQ [DLC1], the protein stability index by setting is: under setting [1], 2.4 ± 0.4; under setting [2], 2.52 ± 0.32.

For HSIINALKAKLQMTEAALALSEQK [LRRC45], the protein stability index under setting [1] was 2.63 ± 0.087 and the protein stability index under setting [2] is 2.74 ± 0.27.

HSQNLAKQQRNEVSFVIHNLPIIA [SEPHS2]: the protein stability index was 2.14 ± 0.089 under setting [1] and 2.25 ± 0.22 under setting [2].

As for HSTLEYKVKERLGTLKNPPKKKMK [LCOR], the protein stability index stood at 4.47 ± 0.26 under setting [1] and 4.73 ± 0.28 under setting [2].

Consider HTLLNELERNPNGVADGVIKSVLW [CDKL4], for which the protein stability index by setting is: under setting [1], 2.58 ± 0.49; under setting [2], 2.7 ± 0.4.

In the case of HTRSLNSIIHQMEKFSSSLHELSS [FBF1], the protein stability index amounted to 2.97 ± 0.21 under setting [1] and 3.06 ± 0.48 under setting [2].

For IAEVCCTSIVYATEKKQTKVEFPE [KCTD10], the protein stability index by setting is: under setting [1], 3.42 ± 0.18; under setting [2], 3.9 ± 0.39.

In the case of IAKAEETHSSLSQELQARLQTVTR [CCDC89], the protein stability index is, setting by setting: under setting [1], 4.25 ± 0.088; under setting [2], 4.13 ± 0.2.

With IATGPFVAFGIEADDESLLRTSNG [DNAAF3], the protein stability index amounted to 3.9 ± 0.16 under setting [1] and 4.01 ± 0.22 under setting [2].

Regarding IAVRKSRDKAKMRNLETQHKVLEL [CEBPB], the protein stability index reads like this: under setting [1], 3.14 ± 0.36; under setting [2], 3.54 ± 0.12.

With ICARACNTTLTQYQLLATHVPTVW [RHOBTB1], the protein stability index is, setting by setting: under setting [1], 2.52 ± 0.49; under setting [2], 2.43 ± 0.7.

Consider IEIVHISTVQILTEGFPPGGGNAR [ZFYVE21], for which the protein stability index is 2.51 ± 0.67 under setting [1] and 2.72 ± 0.74 under setting [2].

For IEKEEQEKKRKEEEERRRREEEER [ACBD3], the protein stability index reads like this: under setting [1], 5.48 ± 0.21; under setting [2], 5.66 ± 0.097.

For the sequence IESERALISQCGKPVVNVSYRPAY [DUSP5], the protein stability index is, setting by setting: under setting [1], 2.6 ± 0.5; under setting [2], 2.82 ± 0.13.

In the case of IFALYSSLKFKSRVPQTWSKRLYG [PLD5], the protein stability index under setting [2] was found to be 2.83 ± 1.7.

IGGFTALHYAAMHGRARIARLMLE [ASB7] came in with a protein stability index under setting [1] of 2.15 ± 0.23 and a protein stability index under setting [2] of 2.31 ± 0.22.

Regarding IGSTSESKDWEEVVVESMEQDRIP [MIA2], the protein stability index was 5.08 ± 0.32 under setting [1] and 5.11 ± 0.26 under setting [2].

With IHTGKKPHVCSLCGKAFYKKYRLT [ZNF649], the protein stability index reads like this: under setting [1], 2.67 ± 0.42; under setting [2], 2.92 ± 0.62.

IICYSITDRRSFHEVREFKQLIYR [RIT1]: the protein stability index under setting [1] stood at 2.41 ± 0.25 and the protein stability index under setting [2] was determined as 2.53 ± 0.46.

Take IILTATDGLFDNMPDYMILQELKK [PPTC7]: the protein stability index was found to be 2.31 ± 0.32 under setting [1] and 2.22 ± 0.19 under setting [2].

Regarding IIRLVRVFRIFKLSRHSKGLQILG [KCNA4], the protein stability index came to 2.25 ± 0.53 under setting [1] and 2.3 ± 0.4 under setting [2].

For the sequence ILVSVAAGVSLSTLEELLPPNTRV [PYCR3], the protein stability index was found to be 2.77 ± 0.49 under setting [1] and 2.62 ± 0.54 under setting [2].

In the case of IMAFFLCLGLALGAVFSFLFRAIV [SLC29A1], the protein stability index is, setting by setting: under setting [1], 1.94 ± 0.14; under setting [2], 2.19 ± 0.21.

Sequence INPYSNRESRILFSTWNLDHIIEK [DFFB] displayed a protein stability index under setting [1] of 2.54 ± 0.1 and a protein stability index under setting [2] of 2.61 ± 0.099.

Regarding IPKCSKIVIDFDSINSRPSQKLQ [DCTD], the protein stability index amounted to 3.14 ± 0.31 under setting [3] and 3.38 ± 0.32 under setting [4].

For the sequence IPSWQIRTVKLIRYVSNWDFFIVG [PKD2L1], the protein stability index under setting [1] is 2.79 ± 0.52 and the protein stability index under setting [2] came out at 2.93 ± 0.7.

For IQIAFEEVPQLPPRASISHVTCVD [C2CD2L], the protein stability index is 2.39 ± 0.16 under setting [1] and 2.46 ± 0.23 under setting [2].

Turning to IQLFEELQELLTHDTKDQSPSRAP [HMOX1], the protein stability index by setting is: under setting [1], 3.3 ± 0.29; under setting [2], 3.61 ± 0.45.

For IRERPAAIPIEIKSIDDTSNFDDF [STK38L], the protein stability index worked out at 4.31 ± 0.3 under setting [1] and 4.92 ± 0.19 under setting [2].

Turning to ISYSSMLGAVAGLALGPILRLYKH [MFSD9], the protein stability index by setting is: under setting [1], 2.58 ± 0.5; under setting [2], 2.13 ± 0.25.

Turning to ITEKIDVAFVDRADIKQYIGPPSA [TRIP13], the protein stability index runs as follows: under setting [1], 3.6 ± 0.15; under setting [2], 3.54 ± 0.58.

ITPTKKIELDRTIMPDGTIVTTVT [C2CD2L]: the protein stability index under setting [1] turned out to be 2.67 ± 0.25 and the protein stability index under setting [2] amounted to 2.79 ± 0.22.

ITRVLYEVFIEWGISAKVFGATTN [ZBED1]: the protein stability index amounted to 3.15 ± 0.88 under setting [1] and 3.04 ± 0.2 under setting [2].

Turning to IVGFGLYGSIHGPTDYQVNIQIIE [BTBD1], the protein stability index by setting is: under setting [1], 2.63 ± 0.4; under setting [2], 2.6 ± 0.47.

As to IVGYAFHFPHLLSPQIQRSAHRAL [TMEM175], the protein stability index runs as follows: under setting [1], 2.23 ± 0.24; under setting [2], 2.54 ± 0.51.
